Test system: EFT-400 tissues
Test: Gene expression by quantitative PCR custom array in EFT-400 tissues with or without UV irradiation
Conditions: for AVG Ct ACTB (housekeeping gene) / AVG Ct AQP3 / AVG Ct BCL2L1 / AVG Ct COL1A1 / AVG Ct COL4A2 / AVG Ct COL5A1 / AVG Ct COL6A1 / AVG Ct COL6A2 / AVG Ct COL7A1 / AVG Ct COL8A1 / AVG Ct COL11A1 / AVG Ct COL12A1 / AVG Ct COL14A1 / AVG Ct COL15A1 / AVG Ct COL16A1 / AVG Ct DSG1 / AVG Ct ERCC1 / AVG Ct FN1 / AVG Ct GAPDH (housekeeping gene) / AVG Ct GDF15 / AVG Ct GSTM3 / AVG Ct HSPA8 / AVG Ct IL1A / AVG Ct IL1B / AVG Ct IL8 / AVG Ct KAL1 / AVG Ct KRT16 / AVG Ct LAMA1 / AVG Ct LAMA2 / AVG Ct LAMA3 / AVG Ct LAMA5 / AVG Ct LAMB1 / AVG Ct LAMB3 / AVG Ct LAMC1 / AVG Ct MMP1 / AVG Ct MMP2 / AVG Ct MT2A / AVG Ct PCNA / AVG Ct RPL13A (housekeeping gene) / AVG Ct SIRT1 / AVG Ct TGFBI / AVG Ct THBS3 / AVG Ct TNC / AVG Ct VTN: UVB + UVA
Description: EpiDerm-FT™ (EFT-400) tissues were produced and packaged in the MatTek Corporation GMP tissue culture production laboratories following standard procedures. Packaged tissues were stored at 4° C. overnight and then re-equilibrated in EFT-400-ASY medium overnight prior to the start of experiments. The sample size was n=3 for each treatment group in the gene expression experiments; and n=6 (two independent experiments of n=3) for the sunburned cell counts.
Total RNA was isolated from the EFT-400 tissues (RNAqueous kit, Ambion) (n=3) and utilized for gene expression analysis by quantitative PCR on an SABioscience custom array containing 42 Human Extracellular Matrix (ECM) and Adhesion Molecules RT^2 Profiler™ PCR Array, stress and toxicity genes whose expression, based on MatTek data, are known to be dramatically altered by UV-protective compounds on UV damaged skin. […] Further, there were three internal control spots on the array that corresponded to human genomic DNA contamination (HGDC), positive PCR control (PPC), and reverse transcription control (RTC).

B1: Nell 1: Full-length human recombinant NELL1 protein (isoform 1, SEQ ID NO: 2), expressed in a wheat germ cell-free translation system, obtained from Abnova (protein, listed as Homo sapiens)
chain: MPMDLILVVWFCVCTARTVVGFGMDPDLQMDIVTELDLVNTTLGVAQVSGMHNASKAFLFQDIEREIHAAPHVSEKLIQLFRNKSEFTILATVQQKPSTSGVILSIRELEHSYFELESSGLRDEIRYHYIHNGKPRTEALPYRMADGQWHKVALSVSASHLLLHVDCNRIYERVIDPPDTNLPPGINLWLGQRNQKHGLFKGIIQDGKIIFMPNGYITQCPNLNHTCPTCSDFLSLVQGIMDLQELLAKMTAKLNYAETRLSQLENCHCEKTCQVSGLLYRDQDSWVDGDHCRNCTCKSGAVECRRMSCPPLNCSPDSLPVHIAGQCCKVCRPKCIYGGKVLAEGQRILTKSCRECRGGVLVKITEMCPPLNCSEKDHILPENQCCRVCRGHNFCAEGPKCGENSECKNWNTKATCECKSGYISVQGDSAYCEDIDECAAKMHYCHANTVCVNLPGLYRCDCVPGYIRVDDFSCTEHDECGSGQHNCDENAICTNTVQGHSCTCKPGYVGNGTICRAFCEEGCRYGGTCVAPNKCVCPSGFTGSHCEKDIDECSEGIIECHNHSRCVNLPGWYHCECRSGFHDDGTYSLSGESCIDIDECALRTHTCWNDSACINLAGGFDCLCPSGPSCSGDCPHEGGLKHNGQVWTLKEDRCSVCSCKDGKIFCRRTACDCQNPSADLFCCPECDTRVTSQCLDQNGHKLYRSGDNWTHSCQQCRCLEGEVDCWPLTCPNLSCEYTAILEGECCPRCVSDPCLADNITYDIRKTCLDSYGVSRLSGSVWTMAGSPCTTCKCKNGRVCCSVDFECLQNN
UV-induced increase in IL-1β RNA level (UV-irradiated, 100 ng/ml): slightly modulated the increases | UV-induced increase in IL-8 RNA level (UV-irradiated, 100 ng/ml): slightly modulated the increases | UV-induced increase in MMP-1 RNA level (UV-irradiated, 100 ng/ml): slightly modulated the increases | significance of further increase of AQP3 RNA after UV exposure (UV-irradiated, 100 ng/ml): highly significant | UV-elevated levels of AQP3 (UV-irradiated, 150 ng/ml): did not have the same effect | UV-induced increase in IL-1β RNA level (UV-irradiated, 150 ng/ml): did not | UV-induced increase in IL-8 RNA level (UV-irradiated, 150 ng/ml): did not | UV-induced increase in MMP-1 RNA level (UV-irradiated, 150 ng/ml): did not | AVG Ct ACTB (housekeeping gene) (100 ng/ml Nell 1): 17.67 | AVG Ct AQP3 (100 ng/ml Nell 1): 21.13 | AVG Ct BCL2L1 (100 ng/ml Nell 1): 23.22 | AVG Ct COL1A1 (100 ng/ml Nell 1): 18.36 | AVG Ct COL4A2 (100 ng/ml Nell 1): 21.55 | AVG Ct COL5A1 (100 ng/ml Nell 1): 22.98 | AVG Ct COL6A1 (100 ng/ml Nell 1): 19.15 | AVG Ct COL6A2 (100 ng/ml Nell 1): 19.19 | AVG Ct COL7A1 (100 ng/ml Nell 1): 24.38 | AVG Ct COL8A1 (100 ng/ml Nell 1): 26.96 | AVG Ct COL11A1 (100 ng/ml Nell 1): 26.86 | AVG Ct COL12A1 (100 ng/ml Nell 1): 23.95 | AVG Ct COL14A1 (100 ng/ml Nell 1): 25.64 | AVG Ct COL15A1 (100 ng/ml Nell 1): 25.01 | AVG Ct COL16A1 (100 ng/ml Nell 1): 23.42 | AVG Ct DSG1 (100 ng/ml Nell 1): 20.06 | AVG Ct ERCC1 (100 ng/ml Nell 1): 23.26 | AVG Ct FN1 (100 ng/ml Nell 1): 19.79 | AVG Ct GAPDH (housekeeping gene) (100 ng/ml Nell 1): 18.15 | AVG Ct GDF15 (100 ng/ml Nell 1): 22.21 | AVG Ct GSTM3 (100 ng/ml Nell 1): 29.13 | AVG Ct HSPA8 (100 ng/ml Nell 1): 19.74 | AVG Ct IL1A (100 ng/ml Nell 1): 24.03 | AVG Ct IL1B (100 ng/ml Nell 1): 26.48 | AVG Ct IL8 (100 ng/ml Nell 1): 17.72 | AVG Ct KAL1 (100 ng/ml Nell 1): 31.65 | AVG Ct KRT16 (100 ng/ml Nell 1): 16.35 | AVG Ct LAMA1 (100 ng/ml Nell 1): 28.16 | AVG Ct LAMA2 (100 ng/ml Nell 1): 25.03 | AVG Ct LAMA3 (100 ng/ml Nell 1): 22.41 | AVG Ct LAMA5 (100 ng/ml Nell 1): 26.3 | AVG Ct LAMB1 (100 ng/ml Nell 1): 22.34 | AVG Ct LAMB3 (100 ng/ml Nell 1): 23.78 | AVG Ct LAMC1 (100 ng/ml Nell 1): 22.72 | AVG Ct MMP1 (100 ng/ml Nell 1): 17.91 | AVG Ct MMP2 (100 ng/ml Nell 1): 18.77 | AVG Ct MT2A (100 ng/ml Nell 1): 16.81 | AVG Ct PCNA (100 ng/ml Nell 1): 23.31 | AVG Ct RPL13A (housekeeping gene) (100 ng/ml Nell 1): 20.55 | AVG Ct SIRT1 (100 ng/ml Nell 1): 26 | AVG Ct TGFBI (100 ng/ml Nell 1): 21.97 | AVG Ct THBS3 (100 ng/ml Nell 1): 28.28 | AVG Ct TNC (100 ng/ml Nell 1): 20.22 | AVG Ct VTN (100 ng/ml Nell 1): 31.83 | AVG Ct ACTB (housekeeping gene) (150 ng/ml Nell 1): 17.99 | AVG Ct AQP3 (150 ng/ml Nell 1): 21.71 | AVG Ct BCL2L1 (150 ng/ml Nell 1): 23.45 | AVG Ct COL1A1 (150 ng/ml Nell 1): 18.78 | AVG Ct COL4A2 (150 ng/ml Nell 1): 21.59 | AVG Ct COL5A1 (150 ng/ml Nell 1): 23.33 | AVG Ct COL6A1 (150 ng/ml Nell 1): 19.34 | AVG Ct COL6A2 (150 ng/ml Nell 1): 19.56 | AVG Ct COL7A1 (150 ng/ml Nell 1): 25.28 | AVG Ct COL8A1 (150 ng/ml Nell 1): 27.46 | AVG Ct COL11A1 (150 ng/ml Nell 1): 27.23 | AVG Ct COL12A1 (150 ng/ml Nell 1): 24.22 | AVG Ct COL14A1 (150 ng/ml Nell 1): 25.86 | AVG Ct COL15A1 (150 ng/ml Nell 1): 25.2 | AVG Ct COL16A1 (150 ng/ml Nell 1): 23.71 | AVG Ct DSG1 (150 ng/ml Nell 1): 20.21 | AVG Ct ERCC1 (150 ng/ml Nell 1): 23.41 | AVG Ct FN1 (150 ng/ml Nell 1): 20.13 | AVG Ct GAPDH (housekeeping gene) (150 ng/ml Nell 1): 18.08 | AVG Ct GDF15 (150 ng/ml Nell 1): 21.87 | AVG Ct GSTM3 (150 ng/ml Nell 1): 29.32 | AVG Ct HSPA8 (150 ng/ml Nell 1): 20.04 | AVG Ct IL1A (150 ng/ml Nell 1): 23.99 | AVG Ct IL1B (150 ng/ml Nell 1): 25.98 | AVG Ct IL8 (150 ng/ml Nell 1): 17.08 | AVG Ct KAL1 (150 ng/ml Nell 1): 32.24 | AVG Ct KRT16 (150 ng/ml Nell 1): 16.47 | AVG Ct LAMA1 (150 ng/ml Nell 1): 28.02 | AVG Ct LAMA2 (150 ng/ml Nell 1): 25.17 | AVG Ct LAMA3 (150 ng/ml Nell 1): 22.96 | AVG Ct LAMA5 (150 ng/ml Nell 1): 27.06 | AVG Ct LAMB1 (150 ng/ml Nell 1): 22.48 | AVG Ct LAMB3 (150 ng/ml Nell 1): 24.32 | AVG Ct LAMC1 (150 ng/ml Nell 1): 22.88 | AVG Ct MMP1 (150 ng/ml Nell 1): 17.75 | AVG Ct MMP2 (150 ng/ml Nell 1): 18.67 | AVG Ct MT2A (150 ng/ml Nell 1): 16.56 | AVG Ct PCNA (150 ng/ml Nell 1): 23.58 | AVG Ct RPL13A (housekeeping gene) (150 ng/ml Nell 1): 20.64 | AVG Ct SIRT1 (150 ng/ml Nell 1): 26.02 | AVG Ct TGFBI (150 ng/ml Nell 1): 21.91 | AVG Ct THBS3 (150 ng/ml Nell 1): 28.7 | AVG Ct TNC (150 ng/ml Nell 1): 20.2 | AVG Ct VTN (150 ng/ml Nell 1): 32.41 | gene expression in the absence of UV irradiation (no UV): some decreases in gene expression
